# Laboratory results reported in IntAct's records for PubMed 18172500.
# B1: Aprataxin and PNK-like factor (Homo sapiens), Q8IW19 (parent)
# chain: MSGGFELQPRDGGPRVALAPGETVIGRGPLLGITDKRVSRRHAILEVAGGQLRIKPIHTNPCFYQSSEKSQLLPLKPNLWCYLNPGDSFSLLVDKYIFRILSIPSEVEMQCTLRNSQVLDEDNILNETPKSPVINLPHETTGASQLEGSTEIAKTQMTPTNSVSFLGENRDCNKQQPILAERKRILPTWMLAEHLSDQNLSVPAISGGNVIQGSGKEEICKDKSQLNTTQQGRRQLISSGSSENTSAEQDTGEECKNTDQEESTISSKEMPQSFSAITLSNTEMNNIKTNAQRNKLPIEELGKVSKHKIATKRTPHKEDEAMSCSENCSSAQGDSLQDESQGSHSESSSNPSNPETLHAKATDSVLQGSEGNKVKRTSCMYGANCYRKNPVHFQHFSHPGDSDYGGVQIVGQDETDDRPECPYGPSCYRKNPQHKIEYRHNTLPVRNVLDEDNDNVGQPNEYDLNDSFLDDEEEDYEPTDEDSDWEPGKEDEEKEDVEELLKEAKRFMKRK
# B2: E3 ubiquitin-protein ligase CHFR (Homo sapiens), Q96EP1-1 (parent)
# chain: MERPEEGKQSPPPQPWGRLLRLGAEEGEPHVLLRKREWTIGRRRGCDLSFPSNKLVSGDHCRIVVDEKSGQVTLEDTSTSGTVINKLKVVKKQTCPLQTGDVIYLVYRKNEPEHNVAYLYESLSEKQGMTQESFEANKENVFHGTKDTSGAGAGRGADPRVPPSSPATQVCFEEPQPSTSTSDLFPTASASSTEPSPAGRERSSSCGSGGGGISPKGSGPSVASDEVSSFASALPDRKTASFSSLEPQDQEDLEPVKKKMRGDGDLDLNGQLLVAQPRRNAQTVHEDVRAAAGKPDKMEETLTCIICQDLLHDCVSLQPCMHTFCAACYSGWMERSSLCPTCRCPVERICKNHILNNLVEAYLIQHPDKSRSEEDVQSMDARNKITQDMLQPKVRRSFSDEEGSSEDLLELSDVDSESSDISQPYVVCRQCPEYRRQAAQPPHCPAPEGEPGAPQALGDAPSTSVSLTTAVQDYVCPLQGSHALCTCCFQPMPDRRAEREQDPRVAPQQCAVCLQPFCHLYWGCTRTGCYGCLAPFCELNLGDKCLDGVLNNNSYESDILKNYLATRGLTWKNMLTESLVALQRGVFLLSDYRVTGDTVLCYCCGLRSFRELTYQYRQNIPASELPVAVTSRPDCYWGRNCRTQVKAHHAMKFNHICEQTRFKN
# Variants of: B1
# Details: with parp1_human PARP1, P09874
row,Variant,effect of a mutation on the interaction
1,MSGGFELQPRDGGPRVALAPGETVIGRGPLLGITDKRVSRRHAILEVAGGQLRIKPIHTNPCFYQSSEKSQLLPLKPNLWCYLNPGDSFSLLVDKYIFRILSIPSEVEMQCTLRNSQVLDEDNILNETPKSPVINLPHETTGASQLEGSTEIAKTQMTPTNSVSFLGENRDCNKQQPILAERKRILPTWMLAEHLSDQNLSVPAISGGNVIQGSGKEEICKDKSQLNTTQQGRRQLISSGSSENTSAEQDTGEECKNTDQEESTISSKEMPQSFSAITLSNTEMNNIKTNAQRNKLPIEELGKVSKHKIATKRTPHKEDEAMSCSENCSSAQGDSLQDESQGSHSESSSNPSNPETLHAKATDSVLQGSEGNKVKRTSAMYGANAYRKNPVHFQHFSHPGDSDYGGVQIVGQDETDDRPEAPYGPSAYRKNPQHKIEYRHNTLPVRNVLDEDNDNVGQPNEYDLNDSFLDDEEEDYEPTDEDSDWEPGKEDEEKEDVEELLKEAKRFMKRK [C379A;C385A;C421A;C427A],disrupting interaction

# Variants of: B2
# Details: with parp1_human PARP1, P09874
# Target sequence in this assay (P09874 whole entry): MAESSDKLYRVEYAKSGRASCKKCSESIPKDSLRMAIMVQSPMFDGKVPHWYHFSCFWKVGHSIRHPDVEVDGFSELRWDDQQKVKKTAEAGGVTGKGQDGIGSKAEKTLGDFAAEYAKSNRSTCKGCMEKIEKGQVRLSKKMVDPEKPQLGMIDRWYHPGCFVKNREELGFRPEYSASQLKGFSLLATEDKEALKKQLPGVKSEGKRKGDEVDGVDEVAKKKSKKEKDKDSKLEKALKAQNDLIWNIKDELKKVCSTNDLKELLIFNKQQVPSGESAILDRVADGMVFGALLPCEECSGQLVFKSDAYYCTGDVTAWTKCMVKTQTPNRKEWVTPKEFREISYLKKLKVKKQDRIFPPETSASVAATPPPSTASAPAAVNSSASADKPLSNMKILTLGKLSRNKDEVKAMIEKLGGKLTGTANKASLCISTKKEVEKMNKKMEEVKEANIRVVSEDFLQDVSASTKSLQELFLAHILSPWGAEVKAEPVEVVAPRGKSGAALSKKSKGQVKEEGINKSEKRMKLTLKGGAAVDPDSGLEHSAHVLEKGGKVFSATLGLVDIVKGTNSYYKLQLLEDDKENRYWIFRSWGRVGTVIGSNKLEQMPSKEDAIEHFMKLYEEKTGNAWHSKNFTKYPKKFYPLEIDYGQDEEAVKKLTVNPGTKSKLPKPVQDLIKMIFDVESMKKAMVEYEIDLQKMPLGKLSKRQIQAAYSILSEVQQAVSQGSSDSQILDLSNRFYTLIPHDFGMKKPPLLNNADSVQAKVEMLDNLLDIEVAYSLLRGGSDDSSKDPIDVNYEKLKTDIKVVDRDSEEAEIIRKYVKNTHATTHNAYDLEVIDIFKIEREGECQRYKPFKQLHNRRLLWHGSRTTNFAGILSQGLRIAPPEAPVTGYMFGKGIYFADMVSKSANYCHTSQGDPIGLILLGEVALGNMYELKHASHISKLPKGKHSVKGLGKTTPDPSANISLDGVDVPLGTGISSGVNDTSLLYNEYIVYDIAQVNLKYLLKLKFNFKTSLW
row,Variant,effect of a mutation on the interaction
1,C635A;C641A,disrupting interaction
